Assay results as given in patent US20060216303A1 (published 2006).

Legend:
[1] = molecular target: T1, synthetic polypeptide 20-mer … of the breast mucin tandem repeat; assay: binding to synthetic 20-mer
T1 construct: also called synthetic peptide started at the beginning of the 20 amino acid repeat

[2] = molecular target: T2, synthetic polypeptide 20-mer APPAHGVTSAPDTRPAPGST of the breast mucin tandem repeat; assay: binding to synthetic 20-mer
T2 construct: also called synthetic peptide started in the middle of the repeat
T2 peptide: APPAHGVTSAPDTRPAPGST

T1 sequence (peptide, as listed by the source): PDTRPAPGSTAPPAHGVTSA

B1: murine BrE-3 monoclonal antibody (antibody, V domains shown)
VH: EVKLEESGGGLVQPGGSMKLSCAASGFTFSDAWMDWVRQSPEKGLEWVAEIRNKANNHATYYDESVKGRFTISRDDSKSRVYLQMISLRAEDTGLYYCTGEFANWGQGTLVTVSA
VL: DVVMTQTPLSLPVSLGDQASISCRSSQNLVHNNGNTYLYWFLQKSGQSPKLLIYRASIRFSGVPDRFSGSGSETDFTLKISRVEAEDLGVYFCFQGTHVPWTFGGGTKLEIK
notes: Whole murine antibody; The entries are printed with a 19-residue leader; also called anti-BrE-3 murine antibody; murine BrE-3 antibody
Does B1 bind [1]?
Result: binds

Does B1 bind [2]?
Result: binds
